Data on twelve substances can be found in US20190224282A1.

In assay [1] the target is cation-independent mannose-6-phosphate/IGF-II receptor on GM4668 human skin fibroblasts (human) (UniProt P11717). The experiment in a line: cell-based or functional assay.
Assay [2] has the same target.
For assay [3] the target is unchanged. The source holds these as a separate data set.

Sequence of UniProt P11717 (P11717 41-2491): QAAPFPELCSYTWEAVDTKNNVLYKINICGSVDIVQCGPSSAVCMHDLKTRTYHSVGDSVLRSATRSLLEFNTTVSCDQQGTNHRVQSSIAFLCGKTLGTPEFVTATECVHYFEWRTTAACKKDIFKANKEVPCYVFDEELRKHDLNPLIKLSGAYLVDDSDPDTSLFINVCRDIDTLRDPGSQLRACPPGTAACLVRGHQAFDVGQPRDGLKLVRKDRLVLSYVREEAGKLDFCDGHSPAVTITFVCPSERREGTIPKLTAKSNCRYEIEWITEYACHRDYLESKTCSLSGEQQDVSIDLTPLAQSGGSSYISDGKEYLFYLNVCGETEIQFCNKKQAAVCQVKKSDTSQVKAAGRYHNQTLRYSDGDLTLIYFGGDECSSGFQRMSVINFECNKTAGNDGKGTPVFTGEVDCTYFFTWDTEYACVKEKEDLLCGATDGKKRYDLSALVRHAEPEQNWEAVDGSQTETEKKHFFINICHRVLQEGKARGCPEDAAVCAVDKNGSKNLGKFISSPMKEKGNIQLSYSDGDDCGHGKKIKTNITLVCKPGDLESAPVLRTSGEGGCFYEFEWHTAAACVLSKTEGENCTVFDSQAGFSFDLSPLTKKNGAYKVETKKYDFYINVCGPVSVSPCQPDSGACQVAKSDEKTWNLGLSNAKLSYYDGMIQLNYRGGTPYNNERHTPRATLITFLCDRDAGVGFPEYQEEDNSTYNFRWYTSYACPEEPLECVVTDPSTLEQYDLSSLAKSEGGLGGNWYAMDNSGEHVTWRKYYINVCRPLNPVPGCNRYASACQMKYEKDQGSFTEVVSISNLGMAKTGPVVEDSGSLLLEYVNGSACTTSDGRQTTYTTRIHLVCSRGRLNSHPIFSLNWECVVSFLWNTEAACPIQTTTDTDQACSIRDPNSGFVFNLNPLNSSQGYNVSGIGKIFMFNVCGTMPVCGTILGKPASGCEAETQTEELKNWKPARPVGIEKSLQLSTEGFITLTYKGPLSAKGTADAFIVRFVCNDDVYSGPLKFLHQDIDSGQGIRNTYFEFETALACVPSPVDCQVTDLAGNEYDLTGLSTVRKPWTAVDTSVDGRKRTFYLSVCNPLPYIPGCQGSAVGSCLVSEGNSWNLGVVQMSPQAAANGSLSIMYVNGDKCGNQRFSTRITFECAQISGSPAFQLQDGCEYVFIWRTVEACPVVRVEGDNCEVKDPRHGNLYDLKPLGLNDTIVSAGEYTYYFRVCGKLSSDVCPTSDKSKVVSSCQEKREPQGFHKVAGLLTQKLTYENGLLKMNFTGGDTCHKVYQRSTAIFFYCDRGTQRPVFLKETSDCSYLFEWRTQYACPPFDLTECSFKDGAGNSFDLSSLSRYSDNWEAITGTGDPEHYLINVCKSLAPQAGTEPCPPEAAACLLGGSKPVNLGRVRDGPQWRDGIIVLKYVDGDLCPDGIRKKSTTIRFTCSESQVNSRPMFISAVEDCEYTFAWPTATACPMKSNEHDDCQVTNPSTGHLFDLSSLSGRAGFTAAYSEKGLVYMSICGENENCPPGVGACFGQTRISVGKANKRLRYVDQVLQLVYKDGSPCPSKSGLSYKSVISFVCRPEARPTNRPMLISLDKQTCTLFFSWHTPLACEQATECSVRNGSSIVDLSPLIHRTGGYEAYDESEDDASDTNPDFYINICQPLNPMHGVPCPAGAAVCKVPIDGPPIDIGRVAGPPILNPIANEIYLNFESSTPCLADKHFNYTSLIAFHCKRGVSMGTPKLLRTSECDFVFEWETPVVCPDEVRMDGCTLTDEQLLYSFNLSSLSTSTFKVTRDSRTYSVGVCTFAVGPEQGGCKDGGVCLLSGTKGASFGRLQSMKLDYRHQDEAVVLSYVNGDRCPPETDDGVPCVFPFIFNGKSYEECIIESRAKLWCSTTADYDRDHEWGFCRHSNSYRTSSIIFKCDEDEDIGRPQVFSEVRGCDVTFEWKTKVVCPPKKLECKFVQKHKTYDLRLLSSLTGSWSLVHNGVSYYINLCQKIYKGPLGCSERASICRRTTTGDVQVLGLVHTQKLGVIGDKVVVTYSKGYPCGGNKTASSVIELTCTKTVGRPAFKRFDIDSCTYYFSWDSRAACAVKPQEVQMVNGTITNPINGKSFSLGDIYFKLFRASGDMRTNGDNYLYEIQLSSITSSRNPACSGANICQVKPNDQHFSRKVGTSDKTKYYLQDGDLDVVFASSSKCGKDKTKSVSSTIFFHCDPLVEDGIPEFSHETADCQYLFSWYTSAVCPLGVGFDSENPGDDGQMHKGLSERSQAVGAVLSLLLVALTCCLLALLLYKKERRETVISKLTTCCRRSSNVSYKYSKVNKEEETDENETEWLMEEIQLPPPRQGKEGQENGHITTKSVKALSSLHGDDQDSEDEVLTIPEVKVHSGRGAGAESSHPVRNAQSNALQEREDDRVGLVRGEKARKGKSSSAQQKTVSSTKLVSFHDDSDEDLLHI

As to “CHO GUS (from UniProt P08236 23-651) (enzyme)”, in assay [1], the +IGF-II (units/mg): uptake with excess IGF-II, 18 hours was found to be 336 units/mg; the +M6P (units/mg): uptake with excess M6P, 18 hours turned out to be 1 units/mg; the Uptake (units/mg), GM4668 fibroblasts, 18 hours is 352 units/mg.

As to “CHO GUS-GILTΔ1-7 (from UniProt P08236 23-651)”, in assay [1], the +IGF-II (units/mg): uptake with excess IGF-II, 18 hours was 84 units/mg; the +M6P (units/mg): uptake with excess M6P, 18 hours worked out at 223 units/mg; the Uptake (units/mg), GM4668 fibroblasts, 18 hours came to 310 units/mg.

For the substance “CHO GUSΔC18-GILTΔ1-7 (from UniProt P08236 23-633)”, in assay [1], the % IGF-II +M6P inhibition of uptake was determined as 100%; the +IGF-II (units/mg): uptake with IGF-II, 22.5 hours was determined as 473 units/mg; the +IGF-II (units/mg): uptake with excess IGF-II, 18 hours is 258 units/mg; the +IGF-II +M6P (units/mg): uptake with both inhibitors, 22.5 hours turned out to be 0 units/mg. In assay [1], this substance gave a +IGF-II Uptake (units/mg), 21 hours of 1010 units/mg; a +M6P (units/mg): uptake with 8 mM M6P, 22.5 hours of 639 units/mg; a +M6P (units/mg): uptake with excess M6P, 18 hours of 412 units/mg; an Uptake (units/mg), GM4668 fibroblasts, 18 hours of 704 units/mg. In assay [1], the Uptake (units/mg), MPS VII fibroblasts, 21 hours is 4080 units/mg and the Uptake (units/mg), fibroblasts, 22.5 hours turned out to be 1580 units/mg.

Take “GILT-GUS with Δ1-7 and Y27L mutations in the IGF-II portion, Leishmania-expressed (from UniProt P08236 23-651)”: in assay [1], the cell-associated GUS activity in GM4668 fibroblasts, fold over unmodified GUS stood at 5 fold.

Turning to GUS (enzyme), the cell-associated GUS activity in GM4668 fibroblast lysate after about 18 h uptake, 150 U enzyme per well (untagged comparison) in assay [2] is 4.5 U/mg lysate. Also, in assay [3], the cell-associated GUS activity in GM4668 fibroblast lysate after uptake of about 350-600 units of ConA-purified enzyme (untagged comparison) (Units/mg protein) amounted to 3.38.

Take GUS-GILTΔ1-7 (from UniProt P08236): in assay [3], the cell-associated GUS activity in GM4668 fibroblast lysate after uptake of about 350-600 units of ConA-purified enzyme in the presence of excess IGF-II as competitor (Units/mg protein) worked out at 13.5 and the cell-associated GUS activity in GM4668 fibroblast lysate after uptake of about 350-600 units of ConA-purified enzyme, no competitor (Units/mg protein) came to 245.

In assay [2], “GUS-IGF-II fusion protein (GUS-GILT), Leishmania-expressed” yielded a cell-associated GUS activity in GM4668 fibroblast lysate after about 18 h uptake, 150 U enzyme per well, no competitor of 24.1 U/mg lysate. Besides, in assay [3], the cell-associated GUS activity in GM4668 fibroblast lysate after uptake of about 350-600 units of ConA-purified enzyme in the presence of excess IGF-II as competitor (Units/mg protein) was 7.93 and the cell-associated GUS activity in GM4668 fibroblast lysate after uptake of about 350-600 units of ConA-purified enzyme, no competitor (Units/mg protein) turned out to be 55.1. In assay [1], the cell-associated GILT-GUS in GM4668 fibroblasts, no IGF-II (units/mg lysate) is > 24; the cell-associated GILT-GUS in GM4668 fibroblasts, with excess IGF-II was determined as 5.4 U; the cell-associated GUS activity in GM4668 fibroblasts, fold over unmodified GUS stood at 10 fold.

In assay [1], “HEK GUS-GILT (from UniProt P08236 23-651)” registered an Uptake (units/mg), MPS VII fibroblasts, 21 hours of 1430 units/mg.

In assay [1], “HEK GUS-GILTF19S (from UniProt P08236 23-651)” gave a % IGF-II +M6P inhibition of uptake of 99.1%; a +IGF-II (units/mg): uptake with IGF-II, 22.5 hours of 217 units/mg; a +IGF-II +M6P (units/mg): uptake with both inhibitors, 22.5 hours of 15 units/mg; a +IGF-II Uptake (units/mg), 21 hours of 439 units/mg. In assay [1], the +M6P (units/mg): uptake with 8 mM M6P, 22.5 hours is 952 units/mg; the Uptake (units/mg), MPS VII fibroblasts, 21 hours was 4730 units/mg; the Uptake (units/mg), fibroblasts, 22.5 hours was 1590 units/mg.

In assay [1], “HEK GUS-GILTF19SE12K (from UniProt P08236 23-651)” displayed a % IGF-II +M6P inhibition of uptake of 100%; a +IGF-II (units/mg): uptake with IGF-II, 22.5 hours of 22 units/mg; a +IGF-II +M6P (units/mg): uptake with both inhibitors, 22.5 hours of 0 units/mg; a +IGF-II Uptake (units/mg), 21 hours of 388 units/mg. For the same substance, in assay [1], the +M6P (units/mg): uptake with 8 mM M6P, 22.5 hours came to 846 units/mg; the Uptake (units/mg), MPS VII fibroblasts, 21 hours was 4230 units/mg; the Uptake (units/mg), fibroblasts, 22.5 hours was determined as 1230 units/mg.

In the case of “HEK GUS-GILTY27L (from UniProt P08236 23-651)”, in assay [1], the Uptake (units/mg), MPS VII fibroblasts, 21 hours turned out to be 1510 units/mg.

For “HEK GUSΔC18-GILTΔ1-7 (from UniProt P08236 23-633)”, in assay [1], the +IGF-II Uptake (units/mg), 21 hours came out at 1210 units/mg and the Uptake (units/mg), MPS VII fibroblasts, 21 hours worked out at 5190 units/mg.
